The target in assay [1] is HIV-1 (NL4-3) GagPol, wild type, in authentic virions (HIV-1 (NL4-3)). Put plainly: incorporation into virions (quantitative fluorescence-based Western blot, LI-COR).
In assay [2] the target is HIV-1 GagPol, protease-inactive (D25A, PR-), from an expression plasmid (HIV-1). Put plainly: incorporation into virus-like particles (fluorescence microscopy of pelleted, filtered particles).

Where “and” joins values, the source holds several entries; their conditions need not be identical. Equal entries are not always repeated.

Chain of DsRed-clathrin LC (P09496 whole entry): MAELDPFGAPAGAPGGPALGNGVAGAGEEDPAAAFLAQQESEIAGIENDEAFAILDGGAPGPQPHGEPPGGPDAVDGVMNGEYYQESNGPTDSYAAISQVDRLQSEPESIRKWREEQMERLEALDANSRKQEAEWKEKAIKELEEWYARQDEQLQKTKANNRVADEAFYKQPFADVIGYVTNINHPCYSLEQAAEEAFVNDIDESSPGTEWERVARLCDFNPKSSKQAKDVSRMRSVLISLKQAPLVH

Regarding “clathrin heavy chain (from UniProt Q00610 1-1675) (natural protein)”, the percent of the total clathrin HC of the culture present in virions in assay [1] is 6% and 8%.

“DsRed-clathrin LC (from UniProt P09496 1-248) (natural protein)” registered a percent of VLPs labelled with DsRed-clathrin LC in assay [2] of 40%.

Values taken from article PMC3128127.
